# Laboratory results taken from PMC5701160.
# Molecular target: PSI core complex (Haematococcus pluvialis (endogenous in strain K-0084))
# Test: estimate from pigment ratios (HPLC) of the isolated B5 fraction; from Chl a/b and Chl/Car ratios, assuming 3.4 Cars per Lhca subunit and 100 Chl a per PSI core complex
substance,measurement,value
LHCI antenna proteins,stoichiometry N (Lhca proteins per P700),5
